Results on two molecules are retold here after article doi:10.1101/2023.04.17.536592 (bioRxiv, 2023).

T1: T. brucei histone H2A (Trypanosoma brucei brucei, UniProt Q57YA3 2-134)
T1 construct: also called Tb H2A
T1 sequence: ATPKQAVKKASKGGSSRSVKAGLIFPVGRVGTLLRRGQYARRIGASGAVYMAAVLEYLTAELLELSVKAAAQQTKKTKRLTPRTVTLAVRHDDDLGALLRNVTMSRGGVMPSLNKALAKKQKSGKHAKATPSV

B1: T. brucei histone H4 (natural protein)
chain: not shown
notes: also called Tb H4
B2: T. brucei histone H2B (natural protein, Trypanosoma brucei brucei)
chain: ATPKSTPAKTRKEAKKTRRQRKRTWNVYVSRSLRSINSQMSMTSRTMKIVNSFVNDLFERIAAEAATIVRVNRKRTLGARELQTAVRLVLPADLAKHAMAEGTKAVSHASS
notes: also called Tb H2B

The test “T. brucei histone H2B” deals with B2. As to the kind of experiment: cryo-EM structure. The conditions noted are these: both partners purified.
The next test deals with T1, T. brucei histone H2A. Briefly: cryo-EM structure. The conditions noted are these: both partners purified.

With B1, in the test with T. brucei histone H2B, the binding result is “binds”.
As for B2, in the test with T. brucei histone H2A, the binding result is given as “binds”.
